Assay results published in PMC3855555.

Legend:
Assay in all cases: pyrophosphate release, enzyme-coupled colorimetric assay
Format in all cases: biochemical, Mycolicibacterium smegmatis
Conditions in all cases: 20 mM Tris-HCl pH 7.5, 5 mM MgSO4, 100 mM NaCl, 37°C
[1] = substrate: O=Cc1cn([C@H]2C[C@H](O)[C@@H](COP(=O)(O)OP(=O)(O)OP(=O)(O)O)O2)c(=O)[nH]c1=O
[2] = substrate: Nc1nc(O)nc2c1ncn2[C@H]1C[C@H](O)[C@@H](COP(=O)(O)OP(=O)(O)OP(=O)(O)O)O1
[3] = substrate: Nc1nc(=O)n([C@H]2C[C@H](O)[C@@H](COP(=O)(O)OP(=O)(O)OP(=O)(O)O)O2)cc1O

B1: Msm MazG (Mycolicibacterium smegmatis MC2 155) (protein)
chain: MIVVLVDPRRPALVPVDAVEFLTGDVQYTEEMPVKVPWSLPSARPAYDGEDAPVLLSSDPEHPVVKARLAAGDRLIAAPEPQPGERLVDAVALMDKLRTSGPWESEQTHDSLRRYLLEETYELFDAVRSGNADELREELGDVLLQVLFHARIAEDAPHHPFSIDDVADALVRKLGNRVPAVLAGESISLDEQLAQWEERKAQEKKVKARASSMDDVPTGQPALALAQKVLARVSQAGLPAELIPASLTSVSVSADTDSENELRTAVLEFMDTVREVEAAVAAGRRGEDVPEELDVAPLGVISEDEWRAYWPGAESSASEAEPEE
notes: heterologously expressed, purified to nearly SDS-PAGE homogeneity; strain given for the bacteria, not for the protein
Q: How did the Km [1] turn out when B1 was run?
A: 434 ± 82 µM

Q: What about the kcat [1] of the same protein?
A: 1 s⁻¹

Q: What about the Km [2] of the same protein?
A: 311 µM

Q: And the Km [3]?
A: 5.6 ± 2.2 µM

Q: And the kcat [3]?
A: 0.013 s⁻¹
